Experimental data taken from patent publication US20090175866A1, “TREATMENT OF B-CELL MALIGNANCIES” (priority 2004, published 2009).

Experiments:
WT FGFR3 = biological target: T1, WT FGFR3 (Homo sapiens, UniProt P22607); assay: Viability of FGF-stimulated B9-FGFR3^WT cells; type: cell-based
T1 construct: expressed in transfected cells; host or cells: B9 cells
Description: FIG. 1B is a graph showing viability of B9-FGFR WT cells treated with different concentrations of PRO-001. The filled bars represent the control (no PRO-001). The dotted bars represent PRO-001 treated cells.
(§1) Non-transformed rat chondrocyte cell line expressing PGFR3 in an inducible manner (RCJ-FGFR3) has been described previously (Rauchenberger R. et al. J. Biol. Chem. 2003; 278:38194-205). Cells were maintained in α-Minimum Essential Media supplemented with 15% fetal calf serum (FCS), 2 mM L-Glutamine, 100 U/ml penicillin, 100 μg/ml streptomycin, 600 μg/ml G418 (Gibco BRL, Ontario, Canada), 2 μg/ml Tetracyclin (Sigma, Ontario, Canada), and 50 μg/ml HygromycinB (Gibco BRL). […]
(§2) Cell viability was assessed by 3-(4,5-dimethylthiazol)-2,5-diphenyl tetrazolium (MTT) or (2,3-bis(2-methoxy-4-nitro-5-sulphophenyl)-5-[(phenylamino) carbonyl]-2H-tetrazolium hydroxide (XTT) dye absorbance where indicated. Cells were seeded in 96-well plates at a density of 20,000 (FDCP-1 cells), 5,000 (B9 cells) or 25,000 cells (MM cell lines) per well in culture medium. Cells were incubated in the absence or presence of one of the following cytokines: 10 ng/ml FGF9 and 5 μg/ml heparin, 1% murine IL-6, 50 ng/ml IGF-1 or 50 ng/ml human IL-6 where indicated and increasing concentrations of PRO-001, control antibody (purified human Fab) or 100 nM PD173074. […]

KMS11 (FGFR3-Y373C) = assay: Viability of KMS11 myeloma cells; type: cell-based, human; conditions: cells grow independent of FGF
Description: as §1, with “BRL). FGFR3 expression was induced by removal of tetracyclin and serum starvation.” for “BRL).”
as §2

ERK1/2 phosphorylation = assay: FGF-induced ERK phosphorylation in primary myeloma cells (flow cytometry); type: cell-based, human; conditions: 5 μg/ml, 2 h pre-incubation
Description: FIGS. 6 A-B are flow cytometry charts of human primary myeloma cells treated with anti-FGFR antibody PRO-001. A: Freshly isolated BMSCs were stained with PRO-001 (black line) or control antibody (grey line) and then stained with PE-conjugated anti-human secondary antibody. B: Primary myeloma cells were incubated in the absence (filled) or presence of FGF (light line) or pre-incubated with 5 μg/ml PRO-001 (dark line) for 2 h and then stimulated with FGF. ERK1/2 phosphorylation was assessed by flow cytometry analysis.
Determination of ERK1/2 phosphorylation by flow cytometry has been described previously (Chow S, et al., Cytometry 2001; 46:72-78). Cells were serum-starved overnight and then stimulated with 30 ng/ml of aFGF and 10 μg/ml heparin for 10 minutes at 37° C. The cells were immediately fixed by adding 10% formaldehyde directly into the culture medium to obtain a final concentration of 2%. Cells were incubated in fixative for 10 min at 37° C. then on ice for an additional 2 minutes. The cells were permeabilized by adding ice-cold methanol (to a final concentration of 90%) while vortexing and incubated on ice for 30 minutes. […] Flow cytometry was performed on a FACSCaliber® flow cytometer (BD Biosciences, San Jose, Calif.) and analyzed using Cellquest® software (Becton Dickinson). […]

T1 sequence (P22607 23-806): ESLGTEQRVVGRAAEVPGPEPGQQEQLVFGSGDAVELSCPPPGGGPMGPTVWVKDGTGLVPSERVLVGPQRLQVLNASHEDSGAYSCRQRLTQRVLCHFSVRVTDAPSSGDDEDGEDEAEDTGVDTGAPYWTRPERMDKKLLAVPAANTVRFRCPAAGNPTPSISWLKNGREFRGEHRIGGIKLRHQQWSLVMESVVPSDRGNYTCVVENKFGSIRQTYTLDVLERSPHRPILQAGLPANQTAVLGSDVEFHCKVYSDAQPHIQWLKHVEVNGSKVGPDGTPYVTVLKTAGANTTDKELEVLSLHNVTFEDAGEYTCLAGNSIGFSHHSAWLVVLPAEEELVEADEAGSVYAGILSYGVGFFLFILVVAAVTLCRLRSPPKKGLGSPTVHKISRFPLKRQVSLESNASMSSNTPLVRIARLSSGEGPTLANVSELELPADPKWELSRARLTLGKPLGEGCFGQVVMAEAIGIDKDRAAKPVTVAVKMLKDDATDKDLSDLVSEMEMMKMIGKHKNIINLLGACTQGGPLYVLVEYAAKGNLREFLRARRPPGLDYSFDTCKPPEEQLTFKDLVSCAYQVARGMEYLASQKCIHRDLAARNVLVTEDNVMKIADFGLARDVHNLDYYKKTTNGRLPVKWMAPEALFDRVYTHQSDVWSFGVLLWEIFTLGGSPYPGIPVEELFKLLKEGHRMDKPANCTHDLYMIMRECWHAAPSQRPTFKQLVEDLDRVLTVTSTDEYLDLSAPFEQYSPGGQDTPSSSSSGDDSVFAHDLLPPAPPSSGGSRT

B1: PRO-001: human anti-FGFR3 Fab from HuCAL library; VH-CDR3 SEQ ID NO:1, VL-CDR3 SEQ ID NO:10; VH SEQ ID NO:19, VL SEQ ID NO:28 (antibody, V domains shown)
VH: QVQLQQSGPGLVKPSQTLSLTCAISGDSVSSNSAAWNWIRQSPGRGLEWLGRTYYRSKWYNDYAVSVKSRITINPDTSKNQFSLQLNSVTPEDTAVYYCARSYYPDFDYWGQGTLVTVSS
VL: DIELTQPPSVSVAPGQTARISCSGDALGDKYASWYQQKPGQAPVLVIYDDSDRPSGIPERFSGSNSGNTATLTISGTQAEDEADYYCQSYDGPDLWVFGGGTKLTVLGQ
WT FGFR3; 1 μg/ml antibody
  Growth inhibition of FGF stimulated B9-FGFR3^WT cells: about 25%
WT FGFR3; 5 μg/ml antibody
  Growth inhibition of FGF stimulated B9-FGFR3^WT cells: more than 60%
KMS11 (FGFR3-Y373C)
  Viability of KMS11 (FGFR3-Y373C): failed to inhibit the viability
ERK1/2 phosphorylation
  FGF-induced ERK phosphorylation in primary myeloma cells: blocked FGF-induced ERK phosphorylation
